Source: US20200040059A1 (ALPINE IMMUNE SCIENCES, published 2020)

biological target: PD-1-Fc; test: Fortebio (BLI), PD-1-Fc

Fortebio binding to PD-1-Fc Response Units	Binder
0.005 Response Units	variant PD-L2 IgV-Fc V89D (Fc fusion, not shown: a dimerising Fc or GST; small tags and cut ends) LFTVTVPKELYIIEHGSNVTLECNFDTGSHVNLGAITASLQKVENDTSPHRERATLLEEQLPLGKASFHIPQVQVRDEGQYQCIIIYGDAWDYKYLTLK

biological target: human ICOS as used for the 'ICOS OD' read-out of Table 14 (human); test: binding read as OD; format not described
Sequence (Q9Y6W8 whole entry): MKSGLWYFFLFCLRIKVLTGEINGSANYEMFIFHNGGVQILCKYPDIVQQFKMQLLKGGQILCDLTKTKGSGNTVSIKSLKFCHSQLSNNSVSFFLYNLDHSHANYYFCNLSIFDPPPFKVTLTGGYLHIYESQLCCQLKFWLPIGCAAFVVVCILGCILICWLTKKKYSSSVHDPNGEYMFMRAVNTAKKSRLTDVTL

ICOS OD	ICOS OD parental ratio	Binder
1.59 OD	1.85 ratio to WT ICOSL ECD-Fc	ICOSL variant N52D ECD-Fc fusion (Fc fusion, not shown: no entry of the listing is held) DTQEKEVRAMVGSDVELSCACPEGSRFDLNDVYVYWQTSESKTVVTYHIPQDSSLENVDSRYRNRALMSPAGMLRGDFSLRLFNVTPQDEQKFHCLVLSQSLGFQEVLSVEVTLHVAANFSVPVVSAPHSPSQDELTFTCTSINGYPRPNVYWINKTDNSLLDQALQNDTVFLNMRGLYDVVSVLRIARTPSVNIGCCIENVLLQQNLTVGSQTGNDIGERDKITENPVSTGEKNAAT
0.16 OD	0.19 ratio to WT ICOSL ECD-Fc	ICOSL variant N52S/S130G/Y152C ECD-Fc fusion (Fc fusion, not shown: The AAA linker to it is left out) DTQEKEVRAMVGSDVELSCACPEGSRFDLNDVYVYWQTSESKTVVTYHIPQSSSLENVDSRYRNRALMSPAGMLRGDFSLRLFNVTPQDEQKFHCLVLSQSLGFQEVLSVEVTLHVAANFSVPVVSAPHGPSQDELTFTCTSINGYPRPNVCWINKTDNSLLDQALQNDTVFLNMRGLYDVVSVLRIARTPSVNIGCCIENVLLQQNLTVGSQTGNDIGERDKITENPVSTGEKNAAT
0.63 OD	0.73 ratio to WT ICOSL ECD-Fc	ICOSL variant F120S/Y152H/N201S ECD-Fc fusion (Fc fusion, not shown: C220S/R292C/N297G/V302C) and the AAA linker to it) DTQEKEVRAMVGSDVELSCACPEGSRFDLNDVYVYWQTSESKTVVTYHIPQNSSLENVDSRYRNRALMSPAGMLRGDFSLRLFNVTPQDEQKFHCLVLSQSLGFQEVLSVEVTLHVAANSSVPVVSAPHSPSQDELTFTCTSINGYPRPNVHWINKTDNSLLDQALQNDTVFLNMRGLYDVVSVLRIARTPSVNIGCCIESVLLQQNLTVGSQTGNDIGERDKITENPVSTGEKNAAT
1.26 OD	1.47 ratio to WT ICOSL ECD-Fc	ICOSL variant N52S/Y146C/Y152C ECD-Fc fusion (Fc fusion, not shown: a dimerising Fc or GST; small tags and cut ends) DTQEKEVRAMVGSDVELSCACPEGSRFDLNDVYVYWQTSESKTVVTYHIPQSSSLENVDSRYRNRALMSPAGMLRGDFSLRLFNVTPQDEQKFHCLVLSQSLGFQEVLSVEVTLHVAANFSVPVVSAPHSPSQDELTFTCTSINGCPRPNVCWINKTDNSLLDQALQNDTVFLNMRGLYDVVSVLRIARTPSVNIGCCIENVLLQQNLTVGSQTGNDIGERDKITENPVSTGEKNAAT
1.57 OD	1.83 ratio to WT ICOSL ECD-Fc	ICOSL variant N52H/N57Y/Q100P ECD-Fc fusion (Fc fusion, not shown: no entry of the listing is held) DTQEKEVRAMVGSDVELSCACPEGSRFDLNDVYVYWQTSESKTVVTYHIPQHSSLEYVDSRYRNRALMSPAGMLRGDFSLRLFNVTPQDEQKFHCLVLSPSLGFQEVLSVEVTLHVAANFSVPVVSAPHSPSQDELTFTCTSINGYPRPNVYWINKTDNSLLDQALQNDTVFLNMRGLYDVVSVLRIARTPSVNIGCCIENVLLQQNLTVGSQTGNDIGERDKITENPVSTGEKNAAT
